The text below walks through data of patent US20120269827A1, “Compositions and Methods for Treatment of Ovarian, Peritoneal, and Fallopian Tube Cancer” (ImmunoGen, Inc., priority 2011, published 2012).

Assay [1] relates to COLO 720E human ovarian carcinoma xenografts. The assay is described as follows: Anti-tumor effect of lorvotuzumab mertansine and topotecan in established subcutaneous COLO 720E xenografts (Example 2). It counts as in vivo, athymic nude mice. More on the design: key to anti-tumor activity rating (NCI standards): Percent T/C values less than or equal to 42% and/or LCK values of 0.5 or greater are considered active; percent T/C values less than 10% are considered highly active. Conditions: for mice tumor free until the end of the study: day 120, six mice per group; for % of tumor growth for treated vs. control (T/C) / anti-tumor activity rating (NCI standards): lorvotuzumab mertansine 11 mg/kg iv once weekly x3, topotecan 0.7 mg/kg ip 5/2/5 schedule, combination same doses. From the text:
Mice were inoculated with human ovarian cancer cell lines and allowed to become established (average tumor size of about 100 mm^3) prior to treatment. Conjugate dosing is described based on antibody concentration. Efficacy is reported as both the % of tumor growth for treated vs. control (% T/C) and log cell kill (LCK) determined from the tumor doubling time and the tumor growth delay due to the treatment. […] Athymic nude mice were inoculated with COLO 720E human ovarian cancer cells (1×10^7 cells/animal) injected subcutaneously into the right flank. When the tumors reached about 115 mm^3 in size (12 days after tumor cell inoculation), the mice were randomly divided into four groups (six animals per group). A control group was treated with a single intravenous injection of PBS. A second group of mice were treated with the single agent lorvotuzumab mertansine at a dose of 11 mg/kg once weekly for three weeks (days 12, 19 and 26 post tumor cell inoculation) administered intravenously. The third group received single-agent topotecan administered intraperitoneally at a dose of 0.7 mg/kg on a 5/2/5 schedule (daily×5, 2 days off, daily×5; days 12-16 and 19-23 post tumor cell inoculation). A fourth group was treated with the combination of lorvotuzumab mertansine and topotecan with the same doses and routes of administration as for individual treatments. Tumor growth was monitored by measuring tumor size twice per week. Tumor size was calculated with the formula: length×width×height×½.

Assay [2] shares this test system. The assay is described as follows: Anti-tumor effect of lorvotuzumab mertansine and gemcitabine in established subcutaneous COLO 720E xenografts (Example 1). It counts as in vivo, athymic nude mice. Conditions: for % of tumor growth for treated vs. control (T/C) / anti-tumor activity rating (NCI standards): lorvotuzumab mertansine 11 mg/kg iv once weekly x3, gemcitabine 80 mg/kg ip every three days x4, combination same doses; for tumor regressions (any): six mice per group, single-agent groups. From the text: (§1) Mice were inoculated with human ovarian cancer cell lines and allowed to become established (average tumor size of about 100 mm^3) prior to treatment. Conjugate dosing is described based on antibody concentration. Efficacy is reported as both the % of tumor growth for treated vs. control (% T/C) and log cell kill (LCK) determined from the tumor doubling time and the tumor growth delay due to the treatment.
The anti-tumor effect of a combination of lorvotuzumab mertansine and gemcitabine was evaluated in an established subcutaneous xenograft model of ovarian cancer. Athymic nude mice were inoculated with COLO 720E human ovarian cancer cells (1×10^7 cells/animal) injected subcutaneously into the right flank. When the tumors reached about 110 mm^3 in size (10 days after tumor cell inoculation), the mice were randomly divided into four groups (six animals per group). A control group was treated with a single intravenous injection of PBS. A second group of mice were treated with the single agent lorvotuzumab mertansine at a dose of 11 mg/kg once weekly for three weeks (days 11, 18 and 25 post tumor cell inoculation) administered intravenously. The third group received single-agent gemcitabine administered intraperitoneally at a dose of 80 mg/kg every three days for a total of four injections (days 11, 14, 17 and 20 post tumor cell inoculation). A fourth group was treated with the combination of lorvotuzumab mertansine and gemcitabine with the same doses and routes of administration as for individual treatments. Tumor growth was monitored by measuring tumor size twice per week. Tumor size was calculated with the formula: length×width×height×½.

The subject of assay [3] is human xenograft preclinical models for ovarian cancer. The note with it: no data given; cited from earlier work.
Assay [4] deals with COLO 720E human ovarian carcinoma xenografts. The assay is described as follows: Anti-tumor effect of lorvotuzumab mertansine and DOXIL in established subcutaneous COLO 720E xenografts (Example 3). It counts as in vivo, athymic nude mice. On the set-up: key to anti-tumor activity rating (NCI standards): Percent T/C values less than or equal to 42% and/or LCK values of 0.5 or greater are considered active; percent T/C values less than 10% are considered highly active.
From the text: as §1
The anti-tumor effect of a combination of lorvotuzumab mertansine and DOXIL® (i.e., PEGylated Liposomal Doxorubicin (PLD)) was evaluated in an established subcutaneous xenograft model of ovarian cancer. Athymic nude mice were inoculated with COLO 720E human ovarian cancer cells (1×10^7 cells/animal) injected subcutaneously into the right flank. When the tumors reached about 100 mm^3 in size (10 days after tumor cell inoculation), the mice were randomly divided into four groups (six animals per group). A control group was treated with a single intravenous injection of PBS. A second group of mice were treated with the single agent lorvotuzumab mertansine at a dose of 11 mg/kg once weekly for three weeks (days 10, 17 and […] post tumor cell inoculation) administered intravenously. The third group received single-agent DOXIL® at a dose of 11 mg/kg (single injection on day 10 post tumor cell inoculation) administered intravenously. A fourth group was treated with the combination of lorvotuzumab mertansine and DOXIL® with the same doses and routes of administration as for individual treatments. Tumor growth was monitored by measuring tumor size twice per week. Tumor size was calculated with the formula: length×width×height× 1/2.

[5] abbreviates: lorvotuzumab mertansine 11 mg/kg iv once weekly x3, DOXIL 11 mg/kg iv single injection, combination same doses.

Entries after “also recorded” stand apart in the source; their conditions may differ.

On to `CC[C@@]1(O)C(=O)OCc2c1cc1n(c2=O)Cc2cc3c(CN(C)C)c(O)ccc3nc2-1` [topotecan, reference compound], for which, in assay [1], the “mice tumor free until the end of the study” value was “no tumor-free mice”, the “% of tumor growth for treated vs. control (T/C)” value (shortened to “% of tumor growth”) was determined as 26% and the “anti-tumor activity rating (NCI standards)” value (“anti-tumor activity rating” for short) is “active”. Besides, the “complete regression (CR)” value in assay [1] (six mice per group) is “one of six”.

For the molecule `Nc1ccn([C@@H]2O[C@H](CO)[C@@H](O)C2(F)F)c(=O)n1` [gemcitabine, reference compound], in assay [2], the “% of tumor growth” value is recorded as 77%, the “anti-tumor activity rating” value was “inactive” and the “tumor regressions (any)” value is given as “no regressions”.

B1: lorvotuzumab mertansine: antibody-drug conjugate comprised of the CD56-binding monoclonal antibody huN901, the SPP linker, and the maytansinoid cytotoxic agent DM1 (conjugate, chains of the INN, looked up)
VH: QVQLVESGGGVVQPGRSLRLSCAASGFTFSSFGMHWVRQAPGKGLEWVAYISSGSFTIYYADSVKGRFTISRDNSKNTLYLQMNSLRAEDTAVYYCARMRKGYAMDYWGQGTLVTVSS
VL: DVVMTQSPLSLPVTLGQPASISCRSSQIIIHSDGNTYLEWFQQRPGQSPRRLIYKVSNRFSGVPDRFSGSGSGTDFTLKISRVEAEDVGVYYCFQGSHVPHTFGQGTKVEIK
modifications: SPP linker, DM1 maytansinoid
B1: in assay [1], the “mice tumor free until the end of the study” value is given as “no tumor-free mice”, the “% of tumor growth” value was 59% and the “anti-tumor activity rating” value was “inactive”. The “partial regression (PR)” value in assay [1] (six mice per group) was “one of six”. Also, the “antitumor activity as a single agent” value in assay [3] is given as “marked antitumor activity”. For the same molecule, in assay [2], the “% of tumor growth” value is given as 38%, the “anti-tumor activity rating” value was “modest antitumor activity; also recorded: active” and the “tumor regressions (any)” value is reported as “no tumor regressions”. In addition, the “mice remaining tumor free to the end of the study” value in assay [4] (day 118, six mice per group) was “one”. In assay [4] (setting [5]), the “% of tumor growth” value was found to be 14% and the “anti-tumor activity rating” value was “active”. Also, the “complete regressions (CR)” value in assay [4] (six mice per group) was “one and one of six”.
